The text below walks through data of paper PMC3168947 (Molecular cell, 2011).

For data set [1], the target named is ClpA6 (Escherichia coli, UniProt P0A8Q6+P0ABH9, C101S/C73V/E96C). The class given is binding, E. coli. The settings on record: for ClpA6 bound ClpS*^F more tightly, fold: excess peptide, compared with […] peptide or absence of ligand; for Kapp of ClpA6 for ClpS*^F in presence of peptide: fluorescence anisotropy, 200 nM ClpS*^F, 20 μM peptide, ATPγS, Fig. 3A. (In fluorescence polarisation assays a small probe gives low polarisation when free and higher when bound to something large.)

Data set [2] concerns the target fluorescent N-end-rule peptide …-fl. In words: fluorescence polarisation.
The target in data set [3] is T1, ClpA6 (hexameric ClpA unfoldase, stabilised by ATPγS) (E. coli, UniProt P0ABH9 1-758).
T1 sequence (looked up): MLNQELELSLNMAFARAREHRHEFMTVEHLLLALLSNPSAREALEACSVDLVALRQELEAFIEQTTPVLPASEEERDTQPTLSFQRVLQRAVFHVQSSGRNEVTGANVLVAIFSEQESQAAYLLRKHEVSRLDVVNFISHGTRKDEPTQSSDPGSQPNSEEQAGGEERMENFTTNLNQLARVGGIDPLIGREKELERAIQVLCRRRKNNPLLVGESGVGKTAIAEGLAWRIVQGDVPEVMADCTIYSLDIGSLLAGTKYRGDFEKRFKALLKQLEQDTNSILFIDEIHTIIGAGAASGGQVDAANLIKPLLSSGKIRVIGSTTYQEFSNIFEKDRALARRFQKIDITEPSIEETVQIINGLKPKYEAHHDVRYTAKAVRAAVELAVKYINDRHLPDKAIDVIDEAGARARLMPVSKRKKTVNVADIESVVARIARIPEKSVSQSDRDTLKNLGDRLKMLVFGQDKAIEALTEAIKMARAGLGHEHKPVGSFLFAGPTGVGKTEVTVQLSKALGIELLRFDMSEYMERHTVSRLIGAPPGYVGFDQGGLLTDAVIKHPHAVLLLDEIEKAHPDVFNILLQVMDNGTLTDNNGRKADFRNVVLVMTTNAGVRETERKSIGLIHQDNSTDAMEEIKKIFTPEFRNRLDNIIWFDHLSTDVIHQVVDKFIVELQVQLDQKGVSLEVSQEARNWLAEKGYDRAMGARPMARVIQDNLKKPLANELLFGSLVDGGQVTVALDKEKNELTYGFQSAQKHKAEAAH
In words: fluorescence polarisation.

The target of data set [4] is T1, ClpA6 (hexameric ClpA unfoldase, …). In words: fluorescence polarisation. This is another data set of the same source.
For data set [5] the target is unchanged. In words: fluorescence polarisation. This is another data set of the same source.
Data set [6] has the same target. In words: fluorescence polarisation. The source holds these as a separate data set.
Data set [7] deals with ClpS*^F variant with NTE deletion (E. coli). In words: fluorescence polarisation.
For data set [8], the system named is ClpAP. In words: ClpAPS degradation of YLFVQELA-GFP. The class given is biochemical, E. coli. The settings on record: for K2 (unimolecular engagement step, global fit): YLFVQELA-GFP degradation, Vmax = Etotal•kdeg/(1+K2), KM = K1•K2/(1+K2); for K2 (unimolecular engagement step, global fit) / steady-state degradation kinetics, in words / reduction in Vmax compared to ClpS, fold: Fig. 4B; for steady-state degradation kinetics, in words / reduction in Vmax compared to ClpS, fold: 100 nM ClpA6, 200 nM ClpP14; for steady-state degradation kinetics, in words: 600 nM ClpS or variants; for reduction in Vmax compared to ClpS, fold: 600 nM ClpS variant.

For data set [9], the target named is T2, fluorescent N-end-rule peptide LLYVQRDSKEC-fl.
T2 peptide: LLYVQRDSKEC(fluorescein maleimide)
In words: fluorescence polarisation.

Substitutions are numbered along the chain they refer to. In names and notes the source's numbering stands. Several values for one entry are separate records, joined by “and”; a condition that tells them apart may be missing. Equal values may be shown once. Read-outs that look alike come from different tables or passages of the source. No end group written: not given here.

Take Phe-Val [FV]: in data set [1], the “ClpA6 bound ClpS*^F more tightly, fold” value is given as “at least 9 fold” and the “Kapp of ClpA6 for ClpS*^F in presence of peptide” value was below 20 nM. Consider “ClpS in complex with the ClpA N domain (from UniProt P0A8Q6 1-106)”, for which the dissociation constant Kd (in general, the concentration at which binding is half-saturated) in data set [2] is 3000 nM. On to MLYVQRDSKEC, for which, in data set [1], the “Kapp of ClpA6 for ClpS*^F in presence of peptide” value was ~ 180 nM.

Turning to Trp-CONH2, in data set [1], the “ClpA6 bound ClpS*^F more tightly, fold” value is reported as “at least 9 fold”.

B1: ClpS*^F (ClpS C73V; C101S; E96C labelled with fluorescein) (natural protein, E. coli, UniProt P0A8Q6 1-106, looked up)
chain: MGKTNDWLDFDQLAEEKVRDALKPPSMYKVILVNDDYTPMEFVIDVLQKFFSYDVERATQLMLAVHYQGKAIVGVFTAEVAETKVAMVNKYARENCHPLLSTLEKA
modifications: fluorescein maleimide on the single cysteine
As to B1, the Kd in [3] is 200 ± 6 nM; in [4] it was around 180 nM; in data set [5], below 20 nM.

B2: ^H66AClpS*^F (natural protein, E. coli, UniProt P0A8Q6 1-106, looked up)
chain: B1 chain with H66A
modifications: fluorescein maleimide on the single cysteine
On to B2, for which the equilibrium dissociation constant (Kd) in data set [3] amounted to 345 ± 3 nM.

B3: ClpS*^F bound to the N-end-rule peptide LLYVQRDSKEC (complex, E. coli)
chain: B1 chain
peptide: LLYVQRDSKEC
modifications: fluorescein maleimide on the single cysteine
As for B3, the Kd in data set [6] is < 20 nM and 20 nM.

B4: ^H66AClpS*^F bound to the N-end-rule peptide LLYVQRDSKEC (complex, E. coli)
chain: B1 chain with H66A
peptide: LLYVQRDSKEC
modifications: fluorescein maleimide on the single cysteine
Consider B4, for which the dissociation constant (Kd) in [6] worked out at 178 ± 4 nM.

B5: ClpA6 (hexameric ClpA unfoldase, stabilised by ATPγS) (enzyme)
chain: T1 sequence (looked up)
Take B5: the fold reduction of affinity against ClpS*^F in data set [7] amounted to 10 fold.

B6: *L13 ClpS with ClpA6 (complex, E. coli)
chain 1: T1 sequence (looked up)
chain 2: MLAEEKVRDALKPPSMYKVILVNDDYTPMEFVIDVLQKFFSYDVERATQLMLAVHYQGKAICGVFTAEVAETKVAMVNKYARENEHPLLCTLEKA
For the molecule B6, the “K2 (unimolecular engagement step, global fit)” value in data set [8] was 0.74. In data set [8] (YLFVQELA-GFP), the “steady-state degradation kinetics, in words” value is “roughly similar steady-state degradation kinetics” and the “reduction in Vmax compared to ClpS, fold” value was found to be 1.3 fold. In addition, the “delivery of N-end-rule substrate for ClpAP degradation” value in data set [8] (YLFVQELA-GFP, ClpS variants, in words) is “mediated efficient substrate degradation”. This molecule also displayed a Kd in [9] of 100 nM.

B7: *A14 ClpS with ClpA6 (complex, E. coli)
chain 1: T1 sequence (looked up)
chain 2: MAEEKVRDALKPPSMYKVILVNDDYTPMEFVIDVLQKFFSYDVERATQLMLAVHYQGKAICGVFTAEVAETKVAMVNKYARENEHPLLCTLEKA
Regarding B7, in [8], the “K2 (unimolecular engagement step, global fit)” value amounted to 9.2. In data set [8] (YLFVQELA-GFP), the “steady-state degradation kinetics, in words” value is on record as “substantial decrease in Vmax” and the “reduction in Vmax compared to ClpS, fold” value was found to be 7.5 fold. Also, binding in data set [9] was put at a Kd of 130 nM.

B8: *V18 ClpS with ClpA6 (complex, E. coli)
chain 1: T1 sequence (looked up)
chain 2: MVRDALKPPSMYKVILVNDDYTPMEFVIDVLQKFFSYDVERATQLMLAVHYQGKAICGVFTAEVAETKVAMVNKYARENEHPLLCTLEKA
B8 had a Kd in data set [9] of 83 nM.
